# Assay results as given in patent US20140031769A1, “THERAPEUTIC AGENT FORMULATIONS FOR IMPLANTED DEVICES” (ForSight Vision4, Inc., priority 2010, published 2014).
# Read-outs that look alike come from different tables or passages of the source.
# Columns and labels:
# [1] = Solubility of therapeutic agent suspension in buffer; type: physicochemical; conditions: aqueous buffer; in the buffer at 37C
# Text: The therapeutic agent stored in the reservoir of the container comprises at least one of a solid comprising the therapeutic agent, a solution comprising the therapeutic agent, a suspension comprising the therapeutic agent, particles comprising the therapeutic agent adsorbed thereon, or particles reversibly bound to the therapeutic agent. For example, reservoir may comprise a suspension of a cortico-steroid such as triamcinolone acetonide to treat inflammation of the retina.
# [2] = Critical micelle concentration (CMC) of surfactant, surface tension with Wilhelmy plate; type: physicochemical
# Text: The CMC can be determined from a variety of techniques such as measurements of surface tension using a Wilhelmy plate. The CMC for a particular surfactant may be dependent on a variety of parameters such as the concentrations of other components in the formulation and the temperature.
# Surface tension measurements may be performed with a Wilhemy plate to determine the CMC; i.e., polysorbate 20 concentration threshold for constant surface tension. Devices can then be filled with formulations containing polysorbate 20 concentrations that are 0, 1, 5 and 20 times the CMC. These devices can be subjected to drug release testing and stability assays as described in Example 2.
# [3] = rabbit, cited from earlier work
# [4] = RRI of 0.02 and reservoir volume of 25 uL; as described in U.S. Pub. No. 2010/0255061; cited from earlier work
# [5] = monkey, cited from earlier work
# [6] = human, cited from earlier work
compound,measurement,setting,value
CC1(C)O[C@@H]2C[C@H]3[C@@H]4CCC5=CC(=O)C=C[C@]5(C)[C@@]4(F)[C@@H](O)C[C@]3(C)[C@]2(C(=O)CO)O1 [triamcinolone acetonide],solubility,[1],~19 µg/mL
Polysorbate 20,CMC (wt %),[2]; CMC 1e−5 M,0.001% wt %
same,CMC (wt %),[2]; CMC 8e−5 M,0.01% wt %
"Ranibizumab: antibody derivative (Fab fragment), VEGF inhibitor; active ingredient of Lucentis™",half-life in the vitreous,[3]; listed as Lucentis™,two to four
same,half-life in the vitreous,[3]; listed as ranibizumab,approximately 3 days
same,half-life in device 100,[4],about 100 days
same,half-life in the vitreous,[5]; listed as Lucentis™,two to four
same,half-life in the vitreous,[5]; listed as ranibizumab,approximately 3 days
same,half-life in the vitreous,[6]; listed as Lucentis™,about nine
same,half-life in the vitreous,[6]; listed as ranibizumab,~220 h
